Laboratory results: the RNAGym collection of RNA variant scans (doi:10.7554/elife.80360)

B1: Hammerhead Ribozyme (parent)
chain: ACCGGAUGUGCUUUCCGGUCUGAUGAGUCCGUGAGGACGAAACAG

Variants of: B1
Assay: self-cleavage, relative activity (ratio to wild type); higher = more cleavage; co-transcriptional
ACCGGAUGUGCUUUUCCGUCUGAUGAGUCCGUGAGGACGAAACAG [C15U G17C] showed a self-cleavage of 0.399. Variant ACCGGAUGUGCUUUCCGUUCUGAUGAGUCAGUGAGGACGAAACAG [G18U C30A] has a self-cleavage of 0.556. In the case of ACCGGAUGUGCUUUCCGGUCUGACGAAUCCGUGAGGACGAAACAG [U24C G27A], the self-cleavage is reported as 0.53. Variant ACCGGAUCUGCUUUCCGGUCUGAUUAGUCCGUGAGGACGAAACAG [G8C G25U] has a self-cleavage of 0.329. ACCGGAUGUGCUUUCCGGUCUGAUGAGACCGAGAGGACGAAACAG [U28A U32A] showed a self-cleavage of 0.824. Variant ACCGGAUGUCCUUUCCGGUGUGAUGAGUCCGUGAGGACGAAACAG [G10C C20G] has a self-cleavage of 0.4. Variant ACGGGAUGUGCUUUCCGGUCUGAUGAGUCCGUGAGGACGUAACAG [C3G A40U] has a self-cleavage of 0.309. ACCGGAUGUGCUUUCCGGUCAGAUGAGUCCGUCAGGACGAAACAG [U21A G33C] showed a self-cleavage of 0.584. ACCGGAUGUGCUGUCCGGCCUGAUGAGUCCGUGAGGACGAAACAG [U13G U19C] gave a self-cleavage of 0.767. ACCGGAUGUGCUUUCCGCUCUGAUGAGACCGUGAGGACGAAACAG [G18C U28A] gave a self-cleavage of 0.415. AGCGGAUGUGCUUUCCGGUCUGAUGAGUCCGUGAGGACGAGACAG [C2G A41G] showed a self-cleavage of 0.369. For ACCGGAUGUGCUUUCCGGUCGGAUGAGUCCGUGAGGACGAAACAU [U21G G45U], the self-cleavage was 0.281. ACCGGAUGUGCUUUCCGGUCUGAUGAGCCCGUGAGGACGACACAG [U28C A41C] showed a self-cleavage of 0.29. Variant AACGGAUGUGCUUUGCGGUCUGAUGAGUCCGUGAGGACGAAACAG [C2A C15G] has a self-cleavage of 0.319. ACCGGAUGUGCUUUACGGUCUGAUGAGUCCGUGAUGACGAAACAG [C15A G35U] showed a self-cleavage of 0.583. With ACCGGAUGUGCUUUCCGGUCUGAAGAGUCCCUGAGGACGAAACAG [U24A G31C] the self-cleavage was 0.814. With ACCGGAUGUGCUUUCCGUUCUGAUGACUCCGUGAGGACGAAACAG [G18U G27C] the self-cleavage was 0.427. In the case of ACAGGAUGUGCUUUCCGGUCUGAUGAGUCCGUGAGGACGAAACAA [C3A G45A], the self-cleavage is reported as 0.358. In the case of ACCGGAUGUGCUUUCCGGUCUGACGAGUCCGUGAGGACGAAACAG [U24C], the self-cleavage is reported as 0.959. Work on ACCGGAUGUGCUUUCCGGUCUGAGGAGUCCGUGAGGAUGAAACAG [U24G C38U] yielded a self-cleavage of 0.656. For ACCGGAUGUGCUUUCCGGUCUGAAGAGUCCGUGGGGACGAAACAG [U24A A34G], the self-cleavage was 0.777. Variant AUCGGAUGUGCUUUCCGGUCUGCUGAGUCCGUGAGGACGAAACAG [C2U A23C] has a self-cleavage of 0.558. With ACCGGAUGUGCUUUCUGGACUGAUGAGUCCGUGAGGACGAAACAG [C16U U19A] the self-cleavage was 0.344. ACCGGGUGUGCUUUCCGCUCUGAUGAGUCCGUGAGGACGAAACAG [A6G G18C] gave a self-cleavage of 0.351. For ACCGGAUGUGCUUUCCGGUCUGAUGAGGACGUGAGGACGAAACAG [U28G C29A], the self-cleavage was 0.878. In the case of ACCUGAUGUGCUUUCCGGUCUGAUGAGUCCGUGAGGACGAAACAG [G4U], the self-cleavage is reported as 0.515. Work on ACCGAAUGUGCUUUCCGGUCUGAUCAGUCCGUGAGGACGAAACAG [G5A G25C] yielded a self-cleavage of 0.268. ACCGGAUGUGCUUUCCGGUCUGGUGAGUCCGUGAAGACGAAACAG [A23G G35A] gave a self-cleavage of 0.38. For ACCGGAUGUUCUUUCCGGUCUGAUGAGUCCGUGAGGACGAGACAG [G10U A41G], the self-cleavage was 0.372. In the case of ACCGGAUGUGCUUUCCGCUCUGAUGAGUCCGUGACGACGAAACAG [G18C G35C], the self-cleavage is reported as 0.35. With ACCGGAUGUCCUUUCCGUUCUGAUGAGUCCGUGAGGACGAAACAG [G10C G18U] the self-cleavage was 0.746. For ACCGGAUGUGCUUUCCGGUCUGUUGAGUCCGUGUGGACGAAACAG [A23U A34U], the self-cleavage was 0.28. ACCGGAUGUGCUUUCCGGUCUGAUGAGACCGUGAGGACGAAACAC [U28A G45C] showed a self-cleavage of 0.365. In the case of ACCGGAUGUGAUUUCCGAUCUGAUGAGUCCGUGAGGACGAAACAG [C11A G18A], the self-cleavage is reported as 0.839. For ACCGGAUGUGCUUUCCGGUCUGAUGUGUCCGUGAGGACGCAACAG [A26U A40C], the self-cleavage was 0.331. For ACCGGAUGUGCCUUCCGGGCUGAUGAGUCCGUGAGGACGAAACAG [U12C U19G], the self-cleavage was 0.371. Work on ACCGAAUGUGCUAUCCGGUCUGAUGAGUCCGUGAGGACGAAACAG [G5A U13A] yielded a self-cleavage of 1.68. In the case of ACCGGAUGUGCUUUCCGGUCUGAAGAGUCCGUGAGGACGAAAAAG [U24A C43A], the self-cleavage is reported as 0.341. For ACCGGAUGUGCUUUCCGGUCUGAUGAGUCCGAGAGCACGAAACAG [U32A G36C], the self-cleavage was 0.37. Work on ACCGGAUGUGCUUUCCGGUGUGAUGAGUCCGUGAGGAUGAAACAG [C20G C38U] yielded a self-cleavage of 0.38. ACCGGAUCUGCUUUCCGGUCUGAUGAGUCCGUGAGGACGAAAGAG [G8C C43G] showed a self-cleavage of 0.403. Variant ACCGGAUGUGCUGUCCGGUCUGAUGAGUCCGUGAGGACGAAACAG [U13G] has a self-cleavage of 0.924. For ACCGGAUGGGCUUUCCGGUCUGAUGAGUCCGUGAGGACCAAACAG [U9G G39C], the self-cleavage was 0.33. Work on ACCGGAUGUGCUUUCCGGUCUGAUGAGUCCGUGAGCACGGAACAG [G36C A40G] yielded a self-cleavage of 0.368. In the case of UCCGGAUGUGUUUUCCGGUCUGAUGAGUCCGUGAGGACGAAACAG [A1U C11U], the self-cleavage is reported as 0.423. Variant ACCGGAUGUGCUUUCCGGUCUGAUGAGUCCUUGAGAACGAAACAG [G31U G36A] has a self-cleavage of 0.482. For ACCGGAUGCGCUUUCCGGUCUGAUGAGUCCGUGAGAACGAAACAG [U9C G36A], the self-cleavage was 0.511. For ACCGGAUGUGCUUUCCGGUCUGAUGAGUCCGUGAGGACCUAACAG [G39C A40U], the self-cleavage was 0.296. ACCGGAUGUGCUUUCCAGUCUGAUGAGUCCGUGUGGACGAAACAG [G17A A34U] gave a self-cleavage of 0.613. With ACCGAAUGUGCUUUCCGGUCUGAUGAGUCCGCGAGGACGAAACAG [G5A U32C] the self-cleavage was 1.15. In the case of ACAGGAUGUGCUUUCCGGUCUGAUGAGUCCGUGAGGACGACACAG [C3A A41C], the self-cleavage is reported as 0.299. ACCGGAUAUGCUUUCCGGUCUGAUGAGUCCGGGAGGACGAAACAG [G8A U32G] showed a self-cleavage of 1.09. In the case of ACCGGAUGUGCUUUCCGGCCUGAUGAGUCCGUGAGGAAGAAACAG [U19C C38A], the self-cleavage is reported as 0.414. For ACCGGAUGUGCAUUCCGGUCUGAUGAGCCCGUGAGGACGAAACAG [U12A U28C], the self-cleavage was 1.1. In the case of ACCGGAUGUGCUUUCCGGUCUGAUGAGUCCGUGAGGACGUAAAAG [A40U C43A], the self-cleavage is reported as 0.344. ACCGUAUGUGCUUUCCGGUCUAAUGAGUCCGUGAGGACGAAACAG [G5U G22A] gave a self-cleavage of 0.269. In the case of ACCGGAUGUGCUUUCCGGUCUGAUAAGACCGUGAGGACGAAACAG [G25A U28A], the self-cleavage is reported as 0.342.
